Data on 2 molecules can be found in PMC2817712.

For the experiment, the target named is T1, CheA3P1, the isolated P1 (Hpt, histidine-containing phosphotransfer) domain of CheA3 (residues 1-135), unphosphorylated.
T1 chain: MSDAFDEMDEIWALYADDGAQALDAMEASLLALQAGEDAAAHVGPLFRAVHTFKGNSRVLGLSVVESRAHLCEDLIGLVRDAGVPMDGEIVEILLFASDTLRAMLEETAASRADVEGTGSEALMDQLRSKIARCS
In words: SPR. The following applies: chain shown with the change; CheA3P1 injected over surfaces coupled with the respective RR; CheA3P1 concentration ranging from 120 nM to 2 mM; parent: ND.

B1: CheY4 (wild type) with an engineered C-terminal biotinylation tag, for SPR surfaces P12A; S13M; C16L; M17Y (protein)
chain: MTKTVLAVDDSAMIRLYVALTLREAGYEVIEASDGQEALDLALSRPVDAILTDQNMPRLDGLGFIRAFRSRPEGKGTPIVFLSTESADTLKAEARAAGALGWMVKPFTQAQLLAVMKKLLG
As for B1, the Kd turned out to be 365 µM.

B2: CheY4 (wild type) with an engineered C-terminal biotinylation tag, for SPR surfaces P12A; S13M (protein)
chain: MTKTVLAVDDSAMIRCMVALTLREAGYEVIEASDGQEALDLALSRPVDAILTDQNMPRLDGLGFIRAFRSRPEGKGTPIVFLSTESADTLKAEARAAGALGWMVKPFTQAQLLAVMKKLLG
With B2, the Kd came out at 678 µM.
